From patent publication EP1378570B1

Target: murine Flk-1 receptor tyrosine kinase (fetal liver kinase 1), full-length, transiently expressed in COS-1 cells from pCMV-Flk-1 (mouse) (UniProt P35918)
Test: competition of unlabeled VEGF (0 to 7 x 10^-9) with 10 pM 125I-VEGF on COS-1 cells expressing Flk-1; analysis by Munson and Rodbard

UniProt P35918, sequence (P35918 other isoform, or with tags, fused parts or gaps limits assumed): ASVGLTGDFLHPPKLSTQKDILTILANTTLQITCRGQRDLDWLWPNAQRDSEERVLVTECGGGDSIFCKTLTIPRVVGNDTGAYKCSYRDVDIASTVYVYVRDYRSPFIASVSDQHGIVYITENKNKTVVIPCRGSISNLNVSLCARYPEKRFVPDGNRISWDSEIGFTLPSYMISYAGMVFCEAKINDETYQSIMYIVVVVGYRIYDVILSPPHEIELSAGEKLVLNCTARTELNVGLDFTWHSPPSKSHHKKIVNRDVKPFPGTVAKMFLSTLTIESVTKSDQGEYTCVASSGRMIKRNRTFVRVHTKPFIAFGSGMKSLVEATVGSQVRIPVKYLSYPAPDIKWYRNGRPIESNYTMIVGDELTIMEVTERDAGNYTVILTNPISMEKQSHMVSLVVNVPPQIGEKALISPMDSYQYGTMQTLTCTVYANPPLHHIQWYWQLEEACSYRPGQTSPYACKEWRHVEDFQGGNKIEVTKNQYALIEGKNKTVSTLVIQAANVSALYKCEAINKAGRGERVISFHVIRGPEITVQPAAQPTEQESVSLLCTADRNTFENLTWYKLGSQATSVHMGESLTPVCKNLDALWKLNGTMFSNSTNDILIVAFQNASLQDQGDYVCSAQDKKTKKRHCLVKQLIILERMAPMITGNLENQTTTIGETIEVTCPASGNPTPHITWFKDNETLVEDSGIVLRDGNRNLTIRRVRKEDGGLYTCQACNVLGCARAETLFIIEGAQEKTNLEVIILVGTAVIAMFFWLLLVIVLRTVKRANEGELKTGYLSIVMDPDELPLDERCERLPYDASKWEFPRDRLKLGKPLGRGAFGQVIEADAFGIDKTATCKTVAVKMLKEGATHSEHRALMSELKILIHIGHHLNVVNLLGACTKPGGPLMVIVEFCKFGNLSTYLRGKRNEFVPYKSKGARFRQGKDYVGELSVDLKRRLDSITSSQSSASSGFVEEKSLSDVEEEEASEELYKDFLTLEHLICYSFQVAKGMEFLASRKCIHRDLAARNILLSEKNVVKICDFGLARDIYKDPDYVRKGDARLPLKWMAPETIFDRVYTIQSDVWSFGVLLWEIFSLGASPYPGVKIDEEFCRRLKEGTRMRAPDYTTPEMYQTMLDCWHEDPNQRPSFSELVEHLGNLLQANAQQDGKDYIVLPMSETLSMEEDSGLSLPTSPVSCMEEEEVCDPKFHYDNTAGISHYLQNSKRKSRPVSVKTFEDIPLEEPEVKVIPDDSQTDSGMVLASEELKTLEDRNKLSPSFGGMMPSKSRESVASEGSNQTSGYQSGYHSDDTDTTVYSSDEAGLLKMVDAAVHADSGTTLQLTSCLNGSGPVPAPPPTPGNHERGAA

## unlabeled VEGF (164 amino acid form), partially purified from conditioned media of COS-1 cells transiently expressing VEGF (from UniProt Q00731 1-392) (ligand)
  Kd: 0.1 nM
